Source: the Human Domainome abundance scans (Beltran et al. 2025)
± gives the uncertainty stated by the source.

B1: Nucleosome-remodeling factor subunit BPTF, residues 2862 to 2918; numbered along this chain, Q12830 (parent)
chain: TKKDTKLYCICKTPYDESKFYIGCDRCQNWYHGRCVGILQSEAELIDEYVCPQCQST

Variants of: B1
Experiment: abundance fitness (aPCA) (normalised: wild type 0, dead -1); higher = more abundant; growth selection in yeast, the domain comes from the species named
Conditions: Homo sapiens

Variant	abundance fitness
TKKDTKLYCICKTPYQESKFYIGCDRCQNWYHGRCVGILQSEAELIDEYVCPQCQST [D16Q]	-0.182 ± 0.1
TKKDTKLYCICKTPYIESKFYIGCDRCQNWYHGRCVGILQSEAELIDEYVCPQCQST [D16I]	-0.624 ± 0.14
TKKDTKLYCICKTPYPESKFYIGCDRCQNWYHGRCVGILQSEAELIDEYVCPQCQST [D16P]	-0.622 ± 0.1
TKKDTKLYCICKTPYAESKFYIGCDRCQNWYHGRCVGILQSEAELIDEYVCPQCQST [D16A]	-0.441 ± 0.067
TKKDTKLYCICKTPYSESKFYIGCDRCQNWYHGRCVGILQSEAELIDEYVCPQCQST [D16S]	-0.362 ± 0.072
TKKDTKLYCICKTPYLESKFYIGCDRCQNWYHGRCVGILQSEAELIDEYVCPQCQST [D16L]	-0.555 ± 0.069
TKKDTKLYCICKTPYKESKFYIGCDRCQNWYHGRCVGILQSEAELIDEYVCPQCQST [D16K]	-0.452 ± 0.11
TKKDTKLYCICKTPYNESKFYIGCDRCQNWYHGRCVGILQSEAELIDEYVCPQCQST [D16N]	-0.181 ± 0.12
TKKDTKLYCICKTPYCESKFYIGCDRCQNWYHGRCVGILQSEAELIDEYVCPQCQST [D16C]	-0.449 ± 0.14
TKKDTKLYCICKTPYTESKFYIGCDRCQNWYHGRCVGILQSEAELIDEYVCPQCQST [D16T]	-0.366 ± 0.076
TKKDTKLYCICKTPYRESKFYIGCDRCQNWYHGRCVGILQSEAELIDEYVCPQCQST [D16R]	-0.515 ± 0.077
TKKDTKLYCICKTPYMESKFYIGCDRCQNWYHGRCVGILQSEAELIDEYVCPQCQST [D16M]	-0.194 ± 0.11
TKKDTKLYCICKTPYVESKFYIGCDRCQNWYHGRCVGILQSEAELIDEYVCPQCQST [D16V]	-0.315 ± 0.064
TKKDTKLYCICKTPYGESKFYIGCDRCQNWYHGRCVGILQSEAELIDEYVCPQCQST [D16G]	-0.564 ± 0.1
TKKDTKLYCICKTPYHESKFYIGCDRCQNWYHGRCVGILQSEAELIDEYVCPQCQST [D16H]	-0.55 ± 0.093
TKKDTKLYCICKTPMDESKFYIGCDRCQNWYHGRCVGILQSEAELIDEYVCPQCQST [Y15M]	-0.005 ± 0.073
TKKDTKLYCICKTPADESKFYIGCDRCQNWYHGRCVGILQSEAELIDEYVCPQCQST [Y15A]	-0.366 ± 0.081
TKKDTKLYCICKTPNDESKFYIGCDRCQNWYHGRCVGILQSEAELIDEYVCPQCQST [Y15N]	-0.593 ± 0.2
TKKDTKLYCICKTPGDESKFYIGCDRCQNWYHGRCVGILQSEAELIDEYVCPQCQST [Y15G]	-0.492 ± 0.076
TKKDTKLYCICKTPKDESKFYIGCDRCQNWYHGRCVGILQSEAELIDEYVCPQCQST [Y15K]	-0.131 ± 0.091
TKKDTKLYCICKTPQDESKFYIGCDRCQNWYHGRCVGILQSEAELIDEYVCPQCQST [Y15Q]	-0.665 ± 0.14
TKKDTKLYCICKTPVDESKFYIGCDRCQNWYHGRCVGILQSEAELIDEYVCPQCQST [Y15V]	-0.275 ± 0.074
TKKDTKLYCICKTPDDESKFYIGCDRCQNWYHGRCVGILQSEAELIDEYVCPQCQST [Y15D]	-0.438 ± 0.11

Variant	abundance fitness
TKKDTKLYCICKTPIDESKFYIGCDRCQNWYHGRCVGILQSEAELIDEYVCPQCQST [Y15I]	-0.073 ± 0.1
TKKDTKLYCICKTPHDESKFYIGCDRCQNWYHGRCVGILQSEAELIDEYVCPQCQST [Y15H]	-0.106 ± 0.12
TKKDTKLYCICKTPEDESKFYIGCDRCQNWYHGRCVGILQSEAELIDEYVCPQCQST [Y15E]	-0.489 ± 0.1
TKKDTKLYCICKTPWDESKFYIGCDRCQNWYHGRCVGILQSEAELIDEYVCPQCQST [Y15W]	-0.118 ± 0.094
TKKDTKLYCICKTPTDESKFYIGCDRCQNWYHGRCVGILQSEAELIDEYVCPQCQST [Y15T]	-0.303 ± 0.075
TKKDTKLYCICKTPSDESKFYIGCDRCQNWYHGRCVGILQSEAELIDEYVCPQCQST [Y15S]	-0.539 ± 0.073
TKKDTKLYCICKTPCDESKFYIGCDRCQNWYHGRCVGILQSEAELIDEYVCPQCQST [Y15C]	-0.505 ± 0.13
TKKDTKLYCICKTPFDESKFYIGCDRCQNWYHGRCVGILQSEAELIDEYVCPQCQST [Y15F]	-0.02 ± 0.1
TKKDTKLYCICKTPPDESKFYIGCDRCQNWYHGRCVGILQSEAELIDEYVCPQCQST [Y15P]	-0.313 ± 0.082
TKKDTKLYCICKAPYDESKFYIGCDRCQNWYHGRCVGILQSEAELIDEYVCPQCQST [T13A]	-0.357 ± 0.18
TKKDTKLYCICKKPYDESKFYIGCDRCQNWYHGRCVGILQSEAELIDEYVCPQCQST [T13K]	-0.044 ± 0.11
TKKDTKLYCICKPPYDESKFYIGCDRCQNWYHGRCVGILQSEAELIDEYVCPQCQST [T13P]	-0.674 ± 0.12
TKKDTKLYCICKCPYDESKFYIGCDRCQNWYHGRCVGILQSEAELIDEYVCPQCQST [T13C]	-0.577 ± 0.19
TKKDTKLYCICKDPYDESKFYIGCDRCQNWYHGRCVGILQSEAELIDEYVCPQCQST [T13D]	-0.54 ± 0.19
TKKDTKLYCICKLPYDESKFYIGCDRCQNWYHGRCVGILQSEAELIDEYVCPQCQST [T13L]	-0.292 ± 0.093
TKKDTKLYCICKQPYDESKFYIGCDRCQNWYHGRCVGILQSEAELIDEYVCPQCQST [T13Q]	-0.116 ± 0.17
TKKDTKLYCICKMPYDESKFYIGCDRCQNWYHGRCVGILQSEAELIDEYVCPQCQST [T13M]	-0.176 ± 0.14
TKKDTKLYCICKRPYDESKFYIGCDRCQNWYHGRCVGILQSEAELIDEYVCPQCQST [T13R]	-0.22 ± 0.12
TKKDTKLYCICKNPYDESKFYIGCDRCQNWYHGRCVGILQSEAELIDEYVCPQCQST [T13N]	-0.297 ± 0.074
TKKDTKLYCICKIPYDESKFYIGCDRCQNWYHGRCVGILQSEAELIDEYVCPQCQST [T13I]	-0.482 ± 0.08
TKKDTKLYCICKGPYDESKFYIGCDRCQNWYHGRCVGILQSEAELIDEYVCPQCQST [T13G]	-0.567 ± 0.46
TKKDTKLYCICKHPYDESKFYIGCDRCQNWYHGRCVGILQSEAELIDEYVCPQCQST [T13H]	-0.518 ± 0.14
TKKDTKLYCICKSPYDESKFYIGCDRCQNWYHGRCVGILQSEAELIDEYVCPQCQST [T13S]	-0.116 ± 0.071
